The record followed here is the Immune Epitope Database (IEDB).

One test concerns the target HLA-C*07:02. Description: IEDB peptide-MHC binding, purified MHC/direct/fluorescence; filed as Kd, often an IC50 or EC50 that approximates it; ≥ and ≤ were set here for values at or beyond the usual limits of such assays. Conditions: source organism: Burkholderia mallei SAVP1.
For a further test, the target named is HLA-B*08:02. The test is described as above. Conditions: source organism: Burkholderia mallei ATCC 23344.
The target in the next test is HLA-C*14:02. The description is as above. The note with it: source organism: Burkholderia mallei SAVP1.
Another test addresses HLA-C*05:01. The test is described as above. The note with it: source organism: Burkholderia mallei SAVP1.
The target in the next test is HLA-C*15:02. The test is described as above. Conditions: source organism: Burkholderia mallei SAVP1.
In another test the target is HLA-B*08:01. Described as above. Conditions: source organism: Burkholderia mallei ATCC 23344.
The next test deals with HLA-C*06:02. Described as above. The note with it: source organism: Burkholderia mallei SAVP1.
Another test concerns the target HLA-B*45:06. Description: IEDB peptide-MHC binding, purified MHC/competitive/fluorescence; filed as Kd, often an IC50 or EC50 that approximates it; ≥ and ≤ were set here for values at or beyond the usual limits of such assays. The note with it: source organism: Burkholderia mallei SAVP1.
A further test has as its target HLA-B*27:20. The test is described as above. The note with it: source organism: Burkholderia mallei SAVP1.
Another test deals with HLA-B*15:42. Described as above. Conditions: source organism: Burkholderia mallei SAVP1.
A further test addresses HLA-B*83:01. The test is described as above. Conditions: source organism: Burkholderia mallei SAVP1.
The target of test [1] is HLA-B*58:01. Description: IEDB peptide-MHC binding, purified MHC/competitive/fluorescence; ≥ and ≤ were set here for values at or beyond the usual limits of such assays. Conditions: source organism: Homo sapiens.
The target in the next test is HLA-B*15:02. Description: IEDB peptide-MHC binding, purified MHC/competitive/fluorescence; filed as Kd, often an IC50 or EC50 that approximates it; ≥ and ≤ were set here for values at or beyond the usual limits of such assays. Conditions: source organism: Toxoplasma gondii RH.
The target of another test is HLA-B*53:01. The test is described as follows: IEDB peptide-MHC binding, purified MHC/competitive/fluorescence; ≥ and ≤ were set here for values at or beyond the usual limits of such assays. The note with it: source organism: Ornithorhynchus anatinus.
A further test deals with HLA-B*40:01. The test is described as follows: IEDB peptide-MHC binding, purified MHC/direct/fluorescence; filed as Kd, often an IC50 or EC50 that approximates it; ≥ and ≤ were set here for values at or beyond the usual limits of such assays.
The next test concerns the target HLA-A*69:01. Described as above.
Another test concerns the target HLA-B*15:01. The test is described as above.
The next test has as its target HLA-B*07:02. The description is as above.
Test [2] deals with HLA-A*02:01. The description is as above. Conditions: source organism: Homo sapiens.
In a further test the target is HLA-B*44:02. The test is described as follows: IEDB peptide-MHC binding, purified MHC/competitive/fluorescence; filed as Kd, often an IC50 or EC50 that approximates it; ≥ and ≤ were set here for values at or beyond the usual limits of such assays. The note with it: source organism: Homo sapiens.
The next test addresses HLA-B*51:01. The description is as above.
The target of the next test is HLA-A*25:01. The description is as above. The note with it: source organism: Homo sapiens.
In test [3] the target is HLA-B*57:01. The test is described as above. Conditions: source organism: Homo sapiens.
Test [4] addresses HLA-A*30:01. The test is described as above. Conditions: source organism: Homo sapiens.
In the next test the target is HLA-A*24:03. The test is described as above. Conditions: source organism: Homo sapiens.
The next test has as its target HLA-A*02:50. The test is described as above. The note with it: source organism: Homo sapiens.
In another test the target is HLA-A*29:02. The test is described as above. The note with it: source organism: Homo sapiens.
In test [5] the target is HLA-B*58:01. The test is described as follows: IEDB peptide-MHC binding, purified MHC/direct/fluorescence; filed as Kd, often an IC50 or EC50 that approximates it; ≥ and ≤ were set here for values at or beyond the usual limits of such assays. Conditions: source organism: Marburg virus - Musoke, Kenya, 1980.
The target in another test is HLA-B*15:17. The test is described as above. The note with it: source organism: Marburg virus - Musoke, Kenya, 1980.
Test [6] has as its target HLA-B*57:01. The description is as above. The note with it: source organism: Marburg virus - Musoke, Kenya, 1980.
In a further test the target is HLA-A*01:01. The test is described as above. The note with it: source organism: Marburg virus - Musoke, Kenya, 1980.
The target in the next test is HLA-A*26:01. Described as above. Conditions: source organism: Ravn virus - Ravn, Kenya, 1987.
The next test concerns the target HLA-A*03:01. Described as above. Conditions: source organism: Marburg virus - Musoke, Kenya, 1980.
Test [7] has as its target HLA-A*30:01. Described as above. Conditions: source organism: Ravn virus - Ravn, Kenya, 1987.
The target of the next test is HLA-A*31:01. The test is described as above. Conditions: source organism: Marburg virus - Musoke, Kenya, 1980.
The next test has as its target HLA-B*38:01. The test is described as above. Conditions: source organism: Ravn virus - Ravn, Kenya, 1987.
The target in a further test is HLA-B*46:01. Described as above. Conditions: source organism: Marburg virus - Musoke, Kenya, 1980.
For another test, the target named is HLA-B*27:05. Described as above. The note with it: source organism: Marburg virus - Musoke, Kenya, 1980.
In a further test the target is HLA-B*18:01. Described as above. Conditions: source organism: Marburg virus - Musoke, Kenya, 1980.
The next test deals with HLA-B*48:01. Described as above. Conditions: source organism: Marburg virus - Musoke, Kenya, 1980.
A further test has as its target HLA-A*11:01. Description: IEDB peptide-MHC binding, purified MHC/competitive/fluorescence; filed as Kd, often an IC50 or EC50 that approximates it; ≥ and ≤ were set here for values at or beyond the usual limits of such assays. Conditions: source organism: Orthomarburgvirus marburgense.
The target of a further test is HLA-B*39:01. The description is as above. The note with it: source organism: Orthomarburgvirus marburgense.
The target in test [8] is HLA-A*02:01. Described as above. The note with it: source organism: Orthomarburgvirus marburgense.
Setting [9] is: source organism: Marburg virus - Musoke, Kenya, 1980.

Take YARRYFYPL: the Kd with HLA-C*07:02 was 0.362 µM; with HLA-B*08:02, 0.043 µM; in the test with HLA-C*14:02, 0.696 µM; with HLA-C*05:01, ≥ 20 µM; with HLA-C*15:02, 0.011 µM; with HLA-B*08:01, 0.002 µM. In addition, the Kd in the test with HLA-C*06:02 was ≥ 20 µM; in the test with HLA-B*45:06, ≥ 5 µM; in the test with HLA-B*27:20 it was 0.0244 µM; in the test with HLA-B*15:42, ≥ 5 µM; in the test with HLA-B*83:01 it was ≥ 5 µM.
KSLTTTMQF registered an IC50 with HLA-B*58:01 [1] of 0.136 µM. This lies in the sub-micromolar range.
SLSSPDSAY came in with a Kd in the test with HLA-B*15:02 of 0.0251 µM.
The sequence YSLEYFQF yielded an IC50 with HLA-B*53:01 of 4.79 µM. This counts as single-digit micromolar.
Regarding EVIPYTPAM, the Kd was 13.2 µM with HLA-B*40:01 (source organism: Homo sapiens); 0.00717 µM with HLA-A*69:01 (source organism: Homo sapiens); 4.76 µM with HLA-B*15:01 (source organism: Homo sapiens); 4.71 µM in the test with HLA-B*07:02 (source organism: Homo sapiens); 5.7 µM in the test with HLA-A*02:01 [2]; ≥ 20 µM with HLA-B*44:02. Also, the Kd was ≥ 20 µM with HLA-B*51:01 (source organism: Homo sapiens); 0.0108 µM in the test with HLA-A*25:01; ≥ 20 µM in the test with HLA-B*57:01 [3]; ≥ 20 µM in the test with HLA-A*30:01 [4]; ≥ 20 µM in the test with HLA-A*24:03; ≥ 20 µM with HLA-A*02:50. In addition, the Kd with HLA-A*29:02 was ≥ 20 µM.
As to VPAWLPLGI, the Kd with HLA-B*58:01 [5] is ≥ 20 µM; in the test with HLA-B*15:17, 0.288 µM; in the test with HLA-B*57:01 [6], ≥ 20 µM; with HLA-A*01:01, ≥ 20 µM; with HLA-B*40:01 (setting [9]), ≥ 20 µM; with HLA-A*69:01 (setting [9]), 0.0111 µM. The Kd in the test with HLA-B*15:01 (setting [9]), with HLA-A*26:01, with HLA-A*03:01, with HLA-A*30:01 [7], in the test with HLA-A*31:01 and in the test with HLA-B*38:01 was ≥ 20 µM throughout. Further, the Kd with HLA-B*46:01 was ≥ 20 µM; in the test with HLA-B*27:05, ≥ 20 µM; with HLA-B*07:02 (setting [9]), 0.732 µM; with HLA-B*18:01, 5.81 µM; with HLA-B*48:01, ≥ 20 µM; with HLA-B*51:01 (source organism: Orthomarburgvirus marburgense), 0.116 µM. In addition, the Kd in the test with HLA-A*11:01 was ≥ 20 µM; with HLA-B*39:01, 2.68 µM; in the test with HLA-A*02:01 [8], 1.05 µM.
